From publication PMC8298264, “Function of cofactor Akirin2 in the regulation of gene expression in model human neutrophil-like HL60 cells” (Bioscience Reports, 2021)

Each molecule was assayed on human HL60 cells (assay: SWATH-MS proteomics, differential protein representation, akirin2 KO vs WT HL60 cells). Conditions: SWATH-MS, akirin2 KO vs WT HL60 cells; over-represented in KO.
Format: cell-based
Procedure, shortened: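 WT and akirin2 KO HL60 lysates (150 µg, n=3 biological replicates) were FASP trypsin-digested and desalted. A spectral library was built by IDA from 3 µg digests, then 5 µg per sample went to variable-window SWATH DIA over a 120-min 5–30% acetonitrile gradient. Identifications were accepted at 1% global FDR, with total-area-sum normalization.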

Molecule	Fold Change	Log (Fold Change)
sp¦Q9GZU8¦PIP30_HUMAN (protein, UniProt Q9GZU8 1-254, looked up) PSME3-interacting protein: MDGGDDGNLIIKKRFVSEAELDERRKRRQEEWEKVRKPEDPEECPEEVYDPRSLYERLQEQKDRKQQEYEEQFKFKNMVRGLDEDETNFLDEVSRQQELIEKQRREEELKELKEYRNNLKKVGISQENKKEVEKKLTVKPIETKNKFSQAKLLAGAVKHKSSESGNSVKRLKPDPEPDDKNQEPSSCKSLGNTSLSGPSIHCPSAAVCIGILPGLGAYSGSSDSESSSDSEGTINATGKIVSSIFRTNTFLEAP	1.523	0.1827
sp¦P21953¦ODBB_HUMAN (protein, UniProt P21953 51-392, looked up) 2-oxoisovalerate …: VAHFTFQPDPEPREYGQTQKMNLFQSVTSALDNSLAKDPTAVIFGEDVAFGGVFRCTVGLRDKYGKDRVFNTPLCEQGIVGFGIGIAVTGATAIAEIQFADYIFPAFDQIVNEAAKYRYRSGDLFNCGSLTIRSPWGCVGHGALYHSQSPEAFFAHCPGIKVVIPRSPFQAKGLLLSCIEDKNPCIFFEPKILYRAAAEEVPIEPYNIPLSQAEVIQEGSDVTLVAWGTQVHVIREVASMAKEKLGVSCEVIDLRTIIPWDVDTICKSVIKTGRLLISHEAPLTGGFASEISSTVQEECFLNLEAPISRVCGYDTPFPHIFEPFYIPDKWKCYDALRKMINY	1.558	0.1926
Gc-globulin (protein, UniProt P02774 17-474, looked up) Vitamin D-binding protein: LERGRDYEKNKVCKEFSHLGKEDFTSLSLVLYSRKFPSGTFEQVSQLVKEVVSLTEACCAEGADPDCYDTRTSALSAKSCESNSPFPVHPGTAECCTKEGLERKLCMAALKHQPQEFPTYVEPTNDEICEAFRKDPKEYANQFMWEYSTNYGQAPLSLLVSYTKSYLSMVGSCCTSASPTVCFLKERLQLKHLSLLTTLSNRVCSQYAAYGEKKSRLSNLIKLAQKVPTADLEDVLPLAEDITNILSKCCESASEDCMAKELPEHTVKLCDNLSTKNSKFEDCCQEKTAMDVFVCTYFMPAAQLPELPDVELPTNKDVCDPGNTKVMDKYTFELSRRTHLPEVFLSKVLEPTLKSLGECCDVEDSTTCFNAKGPLLKKELSSFIDKGQELCADYSENTFTEYKKKLAERLKAKLPDATPTELAKLVNKHSDFASNCCSINSPPLYCDSEIDAELKNIL	5.464	0.7375
sp¦Q15370¦ELOB_HUMAN (protein, UniProt Q15370 1-118, looked up) Elongin-B: MDVFLMIRRHKTTIFTDAKESSTVFELKRIVEGILKRPPDEQRLYKDDQLLDDGKTLGECGFTSQTARPQAPATVGLAFRADDTFEALCIEPFSSPPELPDVMKPQDSGSSANEQAVQ	1.578	0.1982
sp¦P09429¦HMGB1_HUMAN (protein, UniProt P09429 1-215, looked up) High mobility group protein B1: MGKGDPKKPRGKMSSYAFFVQTCREEHKKKHPDASVNFSEFSKKCSERWKTMSAKEKGKFEDMAKADKARYEREMKTYIPPKGETKKKFKDPNAPKRPPSAFFLFCSEYRPKIKGEHPGLSIGDVAKKLGEMWNNTAADDKQPYEKKAAKLKEKYEKDIAAYRAKGKPDAAKKGVVKAEKSKKKKEEEEDEEDEEDEEEEEDEEDEDEEEDDDDE	1.517	0.1809
sp¦P12236¦ADT3_HUMAN (protein, UniProt P12236 1-298, looked up) ADP/ATP translocase 3: MTEQAISFAKDFLAGGIAAAISKTAVAPIERVKLLLQVQHASKQIAADKQYKGIVDCIVRIPKEQGVLSFWRGNLANVIRYFPTQALNFAFKDKYKQIFLGGVDKHTQFWRYFAGNLASGGAAGATSLCFVYPLDFARTRLAADVGKSGTEREFRGLGDCLVKITKSDGIRGLYQGFSVSVQGIIIYRAAYFGVYDTAKGMLPDPKNTHIVVSWMIAQTVTAVAGVVSYPFDTVRRRMMMQSGRKGADIMYTGTVDCWRKIFRDEGGKAFFKGAWSNVLRGMGGAFVLVLYDELKKVI	1.53	0.1848
sp¦Q9NPF4¦OSGEP_HUMAN (protein, UniProt Q9NPF4 1-335, looked up) tRNA N6-adenosine …: MPAVLGFEGSANKIGVGVVRDGKVLANPRRTYVTPPGTGFLPGDTARHHRAVILDLLQEALTESGLTSQDIDCIAYTKGPGMGAPLVSVAVVARTVAQLWNKPLVGVNHCIGHIEMGRLITGATSPTVLYVSGGNTQVIAYSEHRYRIFGETIDIAVGNCLDRFARVLKISNDPSPGYNIEQMAKRGKKLVELPYTVKGMDVSFSGILSFIEDVAHRMLATGECTPEDLCFSLQETVFAMLVEITERAMAHCGSQEALIVGGVGCNVRLQEMMATMCQERGARLFATDERFCIDNGAMIAQAGWEMFRAGHRTPLSDSGVTQRYRTDEVEVTWRD	1.5342	0.1859
sp¦O75534¦CSDE1_HUMAN (protein, UniProt O75534 1-798, looked up) Cold shock domain-containing …: MSFDPNLLHNNGHNGYPNGTSAALRETGVIEKLLTSYGFIQCSERQARLFFHCSQYNGNLQDLKVGDDVEFEVSSDRRTGKPIAVKLVKIKQEILPEERMNGQVVCAVPHNLESKSPAAPGQSPTGSVCYERNGEVFYLTYTPEDVEGNVQLETGDKINFVIDNNKHTGAVSARNIMLLKKKQARCQGVVCAMKEAFGFIERGDVVKEIFFHYSEFKGDLETLQPGDDVEFTIKDRNGKEVATDVRLLPQGTVIFEDISIEHFEGTVTKVIPKVPSKNQNDPLPGRIKVDFVIPKELPFGDKDTKSKVTLLEGDHVRFNISTDRRDKLERATNIEVLSNTFQFTNEAREMGVIAAMRDGFGFIKCVDRDVRMFFHFSEILDGNQLHIADEVEFTVVPDMLSAQRNHAIRIKKLPKGTVSFHSHSDHRFLGTVEKEATFSNPKTTSPNKGKEKEAEDGIIAYDDCGVKLTIAFQAKDVEGSTSPQIGDKVEFSISDKQRPGQQVATCVRLLGRNSNSKRLLGYVATLKDNFGFIETANHDKEIFFHYSEFSGDVDSLELGDMVEYSLSKGKGNKVSAEKVNKTHSVNGITEEADPTIYSGKVIRPLRSVDPTQTEYQGMIEIVEEGDMKGEVYPFGIVGMANKGDCLQKGESVKFQLCVLGQNAQTMAYNITPLRRATVECVKDQFGFINYEVGDSKKLFFHVKEVQDGIELQAGDEVEFSVILNQRTGKCSACNVWRVCEGPKAVAAPRPDRLVNRLKNITLDDASAPRLMVLRQPRGPDNSMGFGAERKIRQAGVID	1.544	0.1886
sp¦P37837¦TALDO_HUMAN (protein, UniProt P37837 1-337, looked up) Transaldolase: MSSSPVKRQRMESALDQLKQFTTVVADTGDFHAIDEYKPQDATTNPSLILAAAQMPAYQELVEEAIAYGRKLGGSQEDQIKNAIDKLFVLFGAEILKKIPGRVSTEVDARLSFDKDAMVARARRLIELYKEAGISKDRILIKLSSTWEGIQAGKELEEQHGIHCNMTLLFSFAQAVACAEAGVTLISPFVGRILDWHVANTDKKSYEPLEDPGVKSVTKIYNYYKKFSYKTIVMGASFRNTGEIKALAGCDFLTISPKLLGELLQDNAKLVPVLSAKAAQASDLEKIHLDEKSFRWLHNEDQMAVEKLSDGIRKFAADAVKLERMLTERMFNAENGK	1.543	0.1885
sp¦P04083¦ANXA1_HUMAN (protein, UniProt P04083 2-346, looked up) Annexin A1: AMVSEFLKQAWFIENEEQEYVQTVKSSKGGPGSAVSPYPTFNPSSDVAALHKAIMVKGVDEATIIDILTKRNNAQRQQIKAAYLQETGKPLDETLKKALTGHLEEVVLALLKTPAQFDADELRAAMKGLGTDEDTLIEILASRTNKEIRDINRVYREELKRDLAKDITSDTSGDFRNALLSLAKGDRSEDFGVNEDLADSDARALYEAGERRKGTDVNVFNTILTTRSYPQLRRVFQKYTKYSKHDMNKVLDLELKGDIEKCLTAIVKCATSKPAFFAEKLHQAMKGVGTRHKALIRIMVSRSEIDMNDIKAFYQKMYGISLCQAILDETKGDYEKILVALCGGN	1.503	0.1771
sp¦Q9Y2Z0¦SGT1_HUMAN (protein, UniProt Q9Y2Z0 2-365, looked up) Protein SGT1 homolog: AAAAAGTATSQRFFQSFSDALIDEDPQAALEELTKALEQKPDDAQYYCQRAYCHILLGNYCVAVADAKKSLELNPNNSTAMLRKGICEYHEKNYAAALETFTEGQKLDIETGFHRVGQAGLQLLTSSDPPALDSQSAGITGADANFSVWIKRCQEAQNGSESEVWTHQSKIKYDWYQTESQVVITLMIKNVQKNDVNVEFSEKELSALVKLPSGEDYNLKLELLHPIIPEQSTFKVLSTKIEIKLKKPEAVRWEKLEGQGDVPTPKQFVADVKNLYPSSSPYTRNWDKLVGEIKEEEKNEKLEGDAALNRLFQQIYSDGSDEVKRAMNKSFMESGGTVLSTNWSDVGKRKVEINPPDDMEWKKY	1.579	0.1983
sp¦P23921¦RIR1_HUMAN (protein, UniProt P23921 1-792, looked up) Ribonucleoside-diphosphate …: MHVIKRDGRQERVMFDKITSRIQKLCYGLNMDFVDPAQITMKVIQGLYSGVTTVELDTLAAETAATLTTKHPDYAILAARIAVSNLHKETKKVFSDVMEDLYNYINPHNGKHSPMVAKSTLDIVLANKDRLNSAIIYDRDFSYNYFGFKTLERSYLLKINGKVAERPQHMLMRVSVGIHKEDIDAAIETYNLLSERWFTHASPTLFNAGTNRPQLSSCFLLSMKDDSIEGIYDTLKQCALISKSAGGIGVAVSCIRATGSYIAGTNGNSNGLVPMLRVYNNTARYVDQGGNKRPGAFAIYLEPWHLDIFEFLDLKKNTGKEEQRARDLFFALWIPDLFMKRVETNQDWSLMCPNECPGLDEVWGEEFEKLYASYEKQGRVRKVVKAQQLWYAIIESQTETGTPYMLYKDSCNRKSNQQNLGTIKCSNLCTEIVEYTSKDEVAVCNLASLALNMYVTSEHTYDFKKLAEVTKVVVRNLNKIIDINYYPVPEACLSNKRHRPIGIGVQGLADAFILMRYPFESAEAQLLNKQIFETIYYGALEASCDLAKEQGPYETYEGSPVSKGILQYDMWNVTPTDLWDWKVLKEKIAKYGIRNSLLIAPMPTASTAQILGNNESIEPYTSNIYTRRVLSGEFQIVNPHLLKDLTERGLWHEEMKNQIIACNGSIQSIPEIPDDLKQLYKTVWEISQKTVLKMAAERGAFIDQSQSLNIHIAEPNYGKLTSMHFYGWKQGLKTGMYYLRTRPAANPIQFTLNKEKLKDKEKVSKEEEEKERNTAAMVCSLENRDECLMCGS	1.511	0.1792
sp¦Q9UK45¦LSM7_HUMAN (protein, UniProt Q9UK45 2-103, looked up) U6 snRNA-associated Sm-like …: ADKEKKKKESILDLSKYIDKTIRVKFQGGREASGILKGFDPLLNLVLDGTIEYMRDPDDQYKLTEDTRQLGLVVCRGTSVVLICPQDGMEAIPNPFIQQQDA	1.561	0.1935
